The target of assay [1] is T1, 5/6FAM-F13ExonS synthetic peptide (5/6FAM on the N-terminus).
T1 peptide: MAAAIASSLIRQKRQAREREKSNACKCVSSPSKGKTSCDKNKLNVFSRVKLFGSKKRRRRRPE
Put plainly: fluorescence polarisation. For orientation: Polarisation of emitted light reports the rotation of a fluorescent probe.

The target in assay [2] is Nav1.6 (SCN8A), transfected cDNA (UniProt Q9UQD0 1-1980). Description: cell-surface binding assay.
Assay [3] deals with pdisplay-LRRC37B-LRR_ECTO (amino acids 468-841) (human, UniProt Q96QE4 468-841). Put plainly: cell-surface binding assay.
Assay [4] concerns the target pdisplay-LRRC37B_ECTO (amino acids 28-905) (human, UniProt Q96QE4 28-905). Description: cell-surface binding assay.

Chain of pdisplay-LRRC37B_ECTO (amino acids 28-905) (Q96QE4 28-905): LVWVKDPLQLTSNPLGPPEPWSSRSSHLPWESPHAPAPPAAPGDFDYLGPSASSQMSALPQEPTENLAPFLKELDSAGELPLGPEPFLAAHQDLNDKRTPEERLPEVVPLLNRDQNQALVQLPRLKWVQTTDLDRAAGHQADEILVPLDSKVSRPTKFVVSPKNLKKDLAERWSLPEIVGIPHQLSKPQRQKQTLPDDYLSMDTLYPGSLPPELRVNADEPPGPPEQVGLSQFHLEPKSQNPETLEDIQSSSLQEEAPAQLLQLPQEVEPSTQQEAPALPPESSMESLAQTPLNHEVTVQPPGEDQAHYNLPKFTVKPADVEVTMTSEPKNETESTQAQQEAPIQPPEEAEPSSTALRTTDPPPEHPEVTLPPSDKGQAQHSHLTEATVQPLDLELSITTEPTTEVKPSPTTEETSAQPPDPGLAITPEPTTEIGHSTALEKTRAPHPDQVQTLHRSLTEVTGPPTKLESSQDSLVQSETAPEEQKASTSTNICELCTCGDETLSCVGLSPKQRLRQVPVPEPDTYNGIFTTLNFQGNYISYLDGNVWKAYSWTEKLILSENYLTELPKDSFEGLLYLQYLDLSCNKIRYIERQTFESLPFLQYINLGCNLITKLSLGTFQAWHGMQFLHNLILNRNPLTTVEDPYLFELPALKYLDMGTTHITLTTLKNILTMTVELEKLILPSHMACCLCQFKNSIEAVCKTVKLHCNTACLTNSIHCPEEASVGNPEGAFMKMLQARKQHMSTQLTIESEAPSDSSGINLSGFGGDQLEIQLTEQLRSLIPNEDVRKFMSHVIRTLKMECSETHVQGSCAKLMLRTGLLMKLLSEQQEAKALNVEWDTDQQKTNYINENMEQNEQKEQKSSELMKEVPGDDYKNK
Chain of Nav1.6 (SCN8A), transfected cDNA (Q9UQD0 whole entry, the tested form may be a part): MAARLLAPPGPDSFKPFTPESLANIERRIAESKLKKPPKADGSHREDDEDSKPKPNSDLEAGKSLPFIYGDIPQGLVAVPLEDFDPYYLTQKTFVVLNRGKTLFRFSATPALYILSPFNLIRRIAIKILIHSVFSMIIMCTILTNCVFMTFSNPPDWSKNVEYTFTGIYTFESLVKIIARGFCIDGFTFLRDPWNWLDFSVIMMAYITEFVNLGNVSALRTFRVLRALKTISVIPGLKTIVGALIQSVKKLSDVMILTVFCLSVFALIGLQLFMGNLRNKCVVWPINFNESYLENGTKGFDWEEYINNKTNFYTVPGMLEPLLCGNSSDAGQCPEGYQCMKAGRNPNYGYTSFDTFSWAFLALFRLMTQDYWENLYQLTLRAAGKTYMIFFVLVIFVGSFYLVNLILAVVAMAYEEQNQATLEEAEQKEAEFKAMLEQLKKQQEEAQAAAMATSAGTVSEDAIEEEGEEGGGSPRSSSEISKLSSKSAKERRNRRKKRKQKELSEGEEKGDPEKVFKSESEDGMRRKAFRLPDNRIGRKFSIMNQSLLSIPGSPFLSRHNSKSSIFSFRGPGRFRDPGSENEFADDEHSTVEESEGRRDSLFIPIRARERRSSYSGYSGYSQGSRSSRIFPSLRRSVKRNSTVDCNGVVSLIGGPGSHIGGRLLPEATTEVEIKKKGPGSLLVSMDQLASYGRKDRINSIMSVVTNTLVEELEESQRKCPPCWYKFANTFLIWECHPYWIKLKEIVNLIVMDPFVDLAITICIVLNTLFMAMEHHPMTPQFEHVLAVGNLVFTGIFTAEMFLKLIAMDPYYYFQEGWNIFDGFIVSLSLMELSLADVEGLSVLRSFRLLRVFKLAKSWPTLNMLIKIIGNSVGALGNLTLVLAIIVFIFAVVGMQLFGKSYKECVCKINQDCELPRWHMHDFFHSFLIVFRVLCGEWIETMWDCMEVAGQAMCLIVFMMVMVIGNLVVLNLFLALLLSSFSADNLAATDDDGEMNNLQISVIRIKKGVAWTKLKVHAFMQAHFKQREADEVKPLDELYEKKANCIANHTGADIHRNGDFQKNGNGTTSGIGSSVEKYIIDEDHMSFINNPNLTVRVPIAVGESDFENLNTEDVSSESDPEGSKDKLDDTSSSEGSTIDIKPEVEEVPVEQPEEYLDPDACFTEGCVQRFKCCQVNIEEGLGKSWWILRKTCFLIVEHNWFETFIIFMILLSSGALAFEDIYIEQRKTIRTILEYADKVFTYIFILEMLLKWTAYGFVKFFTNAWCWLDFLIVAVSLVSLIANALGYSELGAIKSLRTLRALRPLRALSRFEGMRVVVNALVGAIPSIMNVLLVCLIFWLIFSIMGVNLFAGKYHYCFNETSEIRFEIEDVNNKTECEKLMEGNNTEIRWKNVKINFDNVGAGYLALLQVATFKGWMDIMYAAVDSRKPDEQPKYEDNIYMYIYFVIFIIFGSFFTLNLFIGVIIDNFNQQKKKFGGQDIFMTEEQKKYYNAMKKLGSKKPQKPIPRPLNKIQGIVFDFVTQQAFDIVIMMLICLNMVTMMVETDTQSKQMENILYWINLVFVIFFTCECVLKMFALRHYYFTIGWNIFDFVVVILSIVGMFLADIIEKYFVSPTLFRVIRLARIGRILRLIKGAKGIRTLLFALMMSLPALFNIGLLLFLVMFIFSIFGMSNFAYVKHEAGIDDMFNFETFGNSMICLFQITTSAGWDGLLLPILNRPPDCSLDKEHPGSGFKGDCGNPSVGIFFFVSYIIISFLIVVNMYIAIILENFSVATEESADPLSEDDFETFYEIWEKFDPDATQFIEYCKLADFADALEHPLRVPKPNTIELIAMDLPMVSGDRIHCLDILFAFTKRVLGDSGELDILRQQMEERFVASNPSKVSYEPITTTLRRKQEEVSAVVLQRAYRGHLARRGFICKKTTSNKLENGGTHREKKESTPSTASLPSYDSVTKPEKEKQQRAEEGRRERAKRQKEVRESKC

B1: FLAG-LRR recombinant protein (LRR domain of LRRC37B, amino acids 468-841) (domain or fragment)
chain: AAAEKTRAPHPDQVQTLHRSLTEVTGPPTKLESSQDSLVQSETAPEEQKASTSTNICELCTCGDETLSCVGLSPKQRLRQVPVPEPDTYNGIFTTLNFQGNYISYLDGNVWKAYSWTEKLILSENYLTELPKDSFEGLLYLQYLDLSCNKIRYIERQTFESLPFLQYINLGCNLITKLSLGTFQAWHGMQFLHNLILNRNPLTTVEDPYLFELPALKYLDMGTTHITLTTLKNILTMTVELEKLILPSHMACCLCQFKNSIEAVCKTVKLHCNTACLTNSIHCPEEASVGNPEGAFMKMLQARKQHMSTQLTIESEAPSDSSGINLSGFGGDQLEIQLTEQLRSLIPNEDVRKFMSHVIRTLKMECSETHVQGSCAKLSTG
The term Kd denotes the concentration at which binding is half-saturated. As for B1, in assay [1], the Kd came to 530 nM.

B2: F13ExonS-biotin synthetic peptide (peptide)
peptide: T1 peptide
modifications: not fully specified (C-terminus)
In the case of B2, the Kd in assay [2] is 49.83 ± 0.261 nM; in assay [3], 1.18 ± 0.28 nM; in assay [4], 1.1 ± 0.261 nM.

These data come from publication PMC10754148 (Cell, 2023).
